Data: publication PMC2768378

Tests used:
[1] = molecular target: single chain H2A.Z-H2B (single stranded H2A.Z-H2B protein) (budding yeast); test: ITC
[2] = molecular target: single chain H2A.Z-H2B (single stranded H2A.Z-H2B protein) (budding yeast); test: CPMG relaxation dispersion NMR

Kd [1]: 0.1 µM | Kd [2]: 0.22 µM | koff [2]: 22 s⁻¹
B1: Chz.core (residues 71–132 of Chz1) (domain or fragment)
chain: DMDDAKLDALMGNEGEEEEDDLAEIDTSNIITSGRRTRGKVIDYKKTAEELDKKEPSTGSKD
